Reference: PMC10505172, “Discovery and pharmacophoric characterization of chemokine network inhibitors using phage-display, saturation mutagenesis and computational modelling” (Nature Communications, 2023)
Ends that are not written are not given here.

Assays:
CXCL6 = CXCL6 (human, UniProt P80162 38-114); test: cell-based or functional assay
CCL8 = target: T1, CCL8 (human, UniProt P80075 24-99); test: cell-based or functional assay
T1 sequence (looked up): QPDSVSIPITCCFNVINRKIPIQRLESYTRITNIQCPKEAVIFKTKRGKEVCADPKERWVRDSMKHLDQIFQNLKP

B1: HD2 synthetic peptide (peptide)
peptide: EEDDYTAYAPLTCYFT-NH2
- IC50 (median of biological replicates) of inhibition of CXCL6-induced cell migration, chemokine at EC80 (CXCL6): 1.4e-05 molar
- IC50 (median of biological replicates) of inhibition of CCL8-induced cell migration, chemokine at EC80 (CCL8): 1.9e-08 molar
